Biological target: human CD8α/β (human), P01732
Assay: ELISA on CD8αβ

Sequence of human CD8α/β (human), P01732 (P01732 22-182, chain 1 of 2): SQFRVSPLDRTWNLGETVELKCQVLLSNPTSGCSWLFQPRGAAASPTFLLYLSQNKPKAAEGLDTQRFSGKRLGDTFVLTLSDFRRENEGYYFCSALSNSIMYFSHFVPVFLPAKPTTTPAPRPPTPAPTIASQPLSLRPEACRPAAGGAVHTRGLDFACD
Sequence of human CD8α/β (human), P01732 (P10966 22-170, chain 2 of 2, further chain): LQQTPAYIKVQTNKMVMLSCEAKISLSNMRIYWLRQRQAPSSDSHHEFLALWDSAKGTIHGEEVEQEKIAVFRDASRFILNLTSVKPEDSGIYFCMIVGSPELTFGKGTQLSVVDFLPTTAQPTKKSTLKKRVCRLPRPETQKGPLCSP

KHYTN (modifications not checked) [khytn (SEQ ID NO:82)]
EC50: 6 µM

Reference: patent publication US20200291391A1, “CROSS-LINKED EPITOPES AND METHODS OF USE THEREOF” (Indi Molecular, Inc., priority 2019, published 2020)
